Results taken from the nanobody polyreactivity screen of Harvey et al. (2022).

Assay: yeast display, Sf9 membrane polyspecificity reagent, FACS + sequencing; frameworks hold sequencing errors
Summary of the method: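 A synthetic nanobody library was expressed on Saccharomyces cerevisiae BJ5465 by galactose induction for 36–48 hours. The library was stained for 1 hour at 4 °C with 10% biotinylated, detergent-solubilized Sf9 membrane reagent and enriched with streptavidin microbeads before FACS. Low and high (top ~1%) gates were set on anti-HA fluorescence for expression and streptavidin fluorescence for reagent binding, and each polyreactivity label reflects the gate of origin.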

Row | Sequence | polyreactivity (PSR sort gate)
1 | QVQLVESGGGLVQAGGSLRLSCAASGSIFWVYAMGWYRQAPGKERELVAAISQSGGSTYYADSVKGRFTISRDNAKNTVYLQMNSLKPEYTAVYYCAAYVRGQNYDYWGQGTQVTVSS | high polyreactivity
2 | QVQLVESGGGLVQAGGSLRLSCAASGSIFWWNAMGGYRQAPGKERELVAAINWSTGRTYYADSVKGRFTISRDNAKNTVYLQMNSLKPEDTAVYYCAASFVGALGYDYWGQGTQVTVSS | low polyreactivity
3 | QVQLVESGGGLVQAGGSLRLSCAASGSIFWWYGMGWYRQAPGKEREFVADITSGGGTYYADSVKGRFTISRDNAKNTVYLQMNSLKPEDTAVYYCAADVRAYRFDYYFDYWGQGTQVTVSS | low polyreactivity
4 | QVQLVESGGGLVQAGGSLRLSCAASGSIFWYAMGWYRQAPGKERELVATITSGASTTYADSVKGRFTISRDNPKNTVYLQMNSLKPEDTAVYYCAKGFTYPQTRFGYWGQGTQVTVSS | low polyreactivity
5 | QVQLVESGGGLVQAGGSLRLSCAASGSIFWYNAMGWYRQAAGKERELVAAIRWRGGSTYYADSVKGRFTISRDNEKNTVYLQMNSLKPEDTAVYYFAAQVYVSQLYTSYYYWGQGTQVTVSS | high polyreactivity
6 | QVQLVESGGGLVQAGGSLRLSCAASGSIFWYNAMGWYRQAPGKERELVASISYSGAITYYADSVKGRFTISRDNAKNTVYLQMNSLKPEDTAVYYCNAEHYLPGYDWSEYDSWGQGTQVTVSS | low polyreactivity
7 | QVQLVESGGGLVQAGGSLRLSCAASGSIFWYYAMGWSRQAPGKERELVAAITGSGGSTYYADSVKGRFTISRDNAKTTVYLQLNSLKPEDTAVYYCAAEAFFWYYGWYDYWGQGTQVTVSS | high polyreactivity
8 | QVQLVESGGGLVQAGGSLRLSCAASGSIFYANAMGWYRQAPWKEREFVAAISSSGGGTSYADSVKGRFTISRDNAKNTVYLQMNSLKPEDTAVYYFAARVTYGGIPARQIYDYWGQGTQVTVSS | low polyreactivity
9 | QVQLVESGGGLVQAGGSLRLSCAASGSIFYAYARGWYRQAPGKERELVATISSVGSTYYADSVKGRFTISRDNAKHTVYLHMNSLKPEDTAVHYCAKQRIVVYKTGYDYWGQGTQVTVSS | low polyreactivity
10 | QVQLVESGGGLVQAGGSLRLSCAASGSIFYDNAMGWYRQAPGKERELVAAIRGRGGSTYYADSVKGRFTISRDNAKNTVYLQMNSLKPEDTAVYYCNALNYRYRKYDYWGQGTQVTVSS | high polyreactivity
11 | QVQLVESGGGLVQAGGSLRLSCAASGSIFYDNAMGWYRQAPGKERELVAAISFRGSSTYYADSVKGRFTISRDNAKNTVYLQMNSLKPEDTAVYYCNTDIYVQYGWGQGTQVTVSS | low polyreactivity
12 | QVQLVESGGGLVQAGGSLRLSCAASGSIFYDNGMGWYRQAPGKERELVAAISRGGTTNYSDSVKGRFTISRDKAKNTVYLQMNSLKPEDTAVYYCNAETRFTYWGSWYDYWGQGTQVTVSS | low polyreactivity
13 | QVQLVESGGGLVQAGGSLRLSCAASGSIFYDYAMGWYRQAPGKERELVAAISGRGGSTYYADSVKGRFTISRDNAKNTVYLQMNSLKPEDTAVYYCAARYRYRFLDRYNYWGQGTQVTVSS | high polyreactivity
14 | QVQLVESGGGLVQAGGSLRLSCAASGSIFYDYAMGWYRQAPGKERELVATISSGGSTNYADSVKGRFTISRDNAKNTVYLQMNSLKPEDTAVYYCNVDGRRYPHEFDYWGQGTQVTVSS | low polyreactivity
15 | QVQLVESGGGLVQAGGSLRLSCAASGSIFYENAMGWYRQAPGKEREFVATIDLIGDRTYYADSVKGRFTISRDNAKNTVYLQMNCLKPEDTAVYYCAAERVGVFFRYDYWGQGTQVTVSS | low polyreactivity
16 | QVQLVESGGGLVQAGGSLRLSCAASGSIFYENAMGWYRQAPGKERELVAAISRSGGSTYYADSVKGRFTISRDNAKNTVSLQMNSLKPEDTAVYYCAADVYVFIGDYWGQGTQVTVSS | low polyreactivity
17 | QVQLVESGGGLVQAGGSLRLSCAASGSIFYFNAMGWYRQAPGKERELVADISGSGGSTYYADSVKGRFTISRDNAKNTVYLQMNSLKPEDTAVYYCAARLYLHSWWYYAYDYWGQGTQVTVSS | high polyreactivity
18 | QVQLVESGGGLVQAGGSLRLSCAASGSIFYFNAMGWYRQATGKERELVADISWSGGDSTYYADSVKGRFTISRDNAKNTVYLQMNSLKPEDTAVYYCAADLSYPDWSRYQWDMDYWGQGTQVTVSS | low polyreactivity
19 | QVQLVESGGGLVQAGGSLRLSCAASGSIFYFNPMGWYRPAPGKERELVAAISWSGRTYYADSVKGRFTISRDNAKKTVYLQMNSLKPEDTAVYYCNAAYHYYGKYDYWGQGTQVTVSS | high polyreactivity
20 | QVQLVESGGGLVQAGGSLRLSCAASGSIFYGNAMGWYRPAPGKERELVAGITSGVGTNYADSVKGRFTISRDNAKNTVYLQMNSLKPEDTAVYYCNARYVYWIKGHDYWGQGTQVTVSS | high polyreactivity
21 | QVQLVESGGGLVQAGGSLRLSCAASGSIFYGNAMGWYRPAPGKERELVARISWSGSNTRYADSVKGRFTISRDNAKNTVYLQMNSLKPEDTAVYYCNARGFPGKFGYWGQGTQVTVSS | high polyreactivity
22 | QVQLVESGGGLVQAGGSLRLSCAASGSIFYGNAMGWYRQAPGKERELVASITYSGGTTNYADSVKGRFTISRDNAKNTVYLQMNCLKPEDTAVYYCNADIYPDRYGSTNYDFNYWGQGTQVTVSS | low polyreactivity

Row | Sequence | polyreactivity (PSR sort gate)
23 | QVQLVESGGGLVQAGGSLRLSCAASGSIFYGNTMGWYRQAPGKDRELVASITRPGDRTYYADSVKGRFTISRDNAKNTVYLQMNSLKPEDTAVYSCNAGLVLPPPGASIVYFDQMDYWGQGTQLTVSS | low polyreactivity
24 | QVQLVESGGGLVQAGGSLRLSCAASGSIFYGNTMGWYRQAPGKERELVAAITWSGDSTYYADSVKGRFTISRDIAKNTVYLQMISLKPEDTALYYCNADQTGVYYAGEGNHWGQGTQVSVSS | low polyreactivity
25 | QVQLVESGGGLVQAGGSLRLSCAASGSIFYGYAMGWYRQAPGKERELVAAIRWSDGSTYYADSVKGRFTISRDNAKNTVYLQMNSLKPEDTAVYYCNADLWVPSYLWGDYWGQGTQVTVSS | low polyreactivity
26 | QVQLVESGGGLVQAGGSLRLSCAASGSIFYGYAMGWYRQAPGKERELVASISKRGGSTYYADSVKGRFTISRDNAKNTVYLQMNSLKPEDTAVYYCAAEGVVYREYNYWGQGTQVTVSS | high polyreactivity
27 | QVQLVESGGGLVQAGGSLRLSCAASGSIFYHNAMGWYRQAPGKERELVAAISRSGGITSYADSVKGRFTISRDNAKNTVYLQMNSLKPEDTAVYYCAARSYYDGFYYWGQGTQVTVSS | high polyreactivity
28 | QVQLVESGGGLVQAGGSLRLSCAASGSIFYHNPMGWYRQAPGKERELVAAITSRGGRTTYADSVKGRFTISRDNAKNTVYLQMNSLKPEDTAVYYCNAVYTGYSYISRVDYWGQGTQVTVSS | low polyreactivity
29 | QVQLVESGGGLVQAGGSLRLSCAASGSIFYHYAMGWYRQAPGKVRELFAAISGSGGSTYYADSVKGRFTISRDNAKNTVYLQMNSLKPEDSAVYYCAADTSRYHYTRYFFDSDYWGQGTQVTVSS | low polyreactivity
30 | QVQLVESGGGLVQAGGSLRLSCAASGSIFYINAMGWYRQAPGKEREFVATITWSGDSTYYADSVKGRFTISRDNAKNTVYLQMNSLKPEDTAVYYCTARKQYQSYVDWEYDYWGQGTQVTVSS | low polyreactivity
31 | QVQLVESGGGLVQAGGSLRLSCAASGSIFYINAMGWYRQAPGKERELVAAITSGGTYYADSVKGRFTISRDTAKNTVYLQMNSLKPEDTAVYYCAADREGTPLFDYWGQGTQVTVSS | low polyreactivity
32 | QVQLVESGGGLVQAGGSLRLSCAASGSIFYINAMGWYRQAPGKERELVAAITWRGAGTYYADSVKGRFTISRDNAKNTVYLQMNSLKPEDTAVYYCAADDSPWRVPRNYWGQGTQVTVSS | low polyreactivity
33 | QVQLVESGGGLVQAGGSLRLSCAASGSIFYIYAMGWYRQAHGKERELVAAISSGGATYADSVKGRFTISRDNAKNTVYLQMNSLKPEDTAVYYFAVDRAFRAQNYHEYDYWGQGTQVTVSS | low polyreactivity
34 | QVQLVESGGGLVQAGGSLRLSCAASGSIFYIYAMGWYRQAPGKETELVASISRSGGSTYYADSVKGRFTISRDNAKNTVYLQMNSLKPEDTAVYYCAAVITFYRYPPGETYYYWGQGTQVTVSS | high polyreactivity
35 | QVQLVESGGGLVQAGGSLRLSCAASGSIFYKNAMGWYRQAPGKERELVAAITYSGGSTYYADSVKGRFTISRDNAKNTVYLQMNSLKPEDTAVYYCAADIGVYGERREEEYDYWGQGTQVTVSS | low polyreactivity
36 | QVQLVESGGGLVQAGGSLRLSCAASGSIFYKYMGWNIQAPGKERELVAAISWSGGRTYYADSVKGRFTISRDNAKNTVYLQMNSLKPEDTAVYYCNRVVLWRIGDKAFEYWGQGTQVTVSS | high polyreactivity
37 | QVQLVESGGGLVQAGGSLRLSCAASGSIFYKYVMGWYRQAPGKERELVAAISRGGGSTYYADSVKGRFTISRDNAKNTVYLQMNSLKPEDTAVYYCNAVGRPRYGHGFDHWGQGTQVTVSS | high polyreactivity
38 | QVQLVESGGGLVQAGGSLRLSCAASGSIFYLYAMGWYRQAPGKERELVASIRWSGGNTYYADSVKGRFTISRDNAKNTVYLQMNSLKPEDTAVYYCAARTSTHGSSYSIRRFGYWGQGTQVTVSS | high polyreactivity
39 | QVQLVESGGGLVQAGGSLRLSCAASGSIFYNTMGWYRQAPGKERELVAAISGTRASTYYADSVKGRFTISRDNAKNTVYLQMNSLKPEDTAVYYCAAVPAYPRDYDYWGQGTQVTVSS | low polyreactivity
40 | QVQLVESGGGLVQAGGSLRLSCAASGSIFYNYAMGWYRQAPGKERELVATITRSDGSTYYADSVKGRFTISRENAKNTVYLQMNSLKPEDTAVYYCAADSGSTSEYEYWGQGTQGTVSS | low polyreactivity
41 | QVQLVESGGGLVQAGGSLRLSCAASGSIFYPNAMGWYRQAPGKEREFVAAITWNGDSTYYADSVKGRFTISRDNAKNTVYLQMNSLKPEDTAVYYCNTDGQGIYSYNKDLSWISGYDYWGQGTQVTVSS | low polyreactivity
42 | QVQLVESGGGLVQAGGSLRLSCAASGSIFYPNAMGWYRQAPGKERELVAAITTGGSTNYADSVKGRFTISRDNAKNTVYLQMNSLKPEDTAVYYCNARHRYHSYTQPRWKYVYWGQGTQVTVSS | low polyreactivity
43 | QVQLVESGGGLVQAGGSLRLSCAASGSIFYPNAMGWYRQAPGKERELVADINTSGGDTYYADSVKGRFTISRDNAKNTVYLQMNSLKPEDTAVYYGAAEGYLYQYTSKPSDYWGQGTQVTVSS | low polyreactivity
